Results taken from patent publication US20180155451A1 (published 2018).

T1: FcγRIIb (human, UniProt P31994 43-217)
T1 construct: extracellular domain; also called FcgRIIb; 2b
T1 sequence (looked up): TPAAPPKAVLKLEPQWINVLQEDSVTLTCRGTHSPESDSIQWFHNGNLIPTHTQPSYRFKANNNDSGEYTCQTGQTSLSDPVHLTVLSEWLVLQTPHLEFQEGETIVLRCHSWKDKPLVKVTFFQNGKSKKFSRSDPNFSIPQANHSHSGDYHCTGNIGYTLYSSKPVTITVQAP

T2: FcγRIIa R (FcγRIIa, allotype R: Arg at position 131) extracellular domain with C-terminal His tag (human, UniProt P12318 34-217)
T2 construct: extracellular domain; also called FcgRIIa R; 2aR; not shown: His tag at the C terminus
T2 sequence (looked up): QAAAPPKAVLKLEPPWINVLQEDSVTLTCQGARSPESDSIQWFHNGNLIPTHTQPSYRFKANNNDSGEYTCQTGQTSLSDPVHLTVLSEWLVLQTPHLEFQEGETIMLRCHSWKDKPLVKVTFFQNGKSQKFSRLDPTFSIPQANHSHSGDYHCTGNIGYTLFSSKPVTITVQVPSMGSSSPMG

T3: FcγRIIb extracellular domain with C-terminal His tag (human, UniProt P31994 43-217)
T3 construct: extracellular domain; also called FcgRIIb; 2b; not shown: His tag at the C terminus
T3 sequence (looked up): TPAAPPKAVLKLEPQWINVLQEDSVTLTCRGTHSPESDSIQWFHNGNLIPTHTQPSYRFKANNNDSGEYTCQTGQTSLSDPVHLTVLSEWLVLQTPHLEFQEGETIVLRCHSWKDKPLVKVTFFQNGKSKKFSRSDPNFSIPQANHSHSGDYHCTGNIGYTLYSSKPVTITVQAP

B1: GpH7-A5/GpH7-B3 variant S337_01G/GpL16-k0 (antibody, human IgG1, kappa)
heavy 1: not shown
heavy 2: not shown
light: DIVMTQSPLSLPVTPGEPASISCQASESLVHSNRNTYLHWYLQKPGQSPQLLIYKVSNRFSGVPDRFSGSGSGTDFTLKISRVEAEDVGVYYCSQNTHVPPTFGQGTKVEIERTVAAPSVFIFPPSDEQLKSGTASVVCLLNNFYPREAKVQWKVDNALQSGNSQESVTEQDSKDSTYSLSSTLTLSKADYEKHKVYACEVTHQGLSSPVTKSFNRGEC
notes: heterodimerized IgG1, one H chain mutated; also called He Ab
B2: GpH7-A5/GpH7-B3 variant S337_02A/GpL16-k0 (antibody, human IgG1, kappa)
heavy 1: not shown
heavy 2: not shown
light: DIVMTQSPLSLPVTPGEPASISCQASESLVHSNRNTYLHWYLQKPGQSPQLLIYKVSNRFSGVPDRFSGSGSGTDFTLKISRVEAEDVGVYYCSQNTHVPPTFGQGTKVEIERTVAAPSVFIFPPSDEQLKSGTASVVCLLNNFYPREAKVQWKVDNALQSGNSQESVTEQDSKDSTYSLSSTLTLSKADYEKHKVYACEVTHQGLSSPVTKSFNRGEC
notes: as for B1
B3: GpH7-A5/GpH7-B3 variant A330_19Q/GpL16-k0 (antibody, human IgG1, kappa)
heavy 1: not shown
heavy 2: not shown
light: DIVMTQSPLSLPVTPGEPASISCQASESLVHSNRNTYLHWYLQKPGQSPQLLIYKVSNRFSGVPDRFSGSGSGTDFTLKISRVEAEDVGVYYCSQNTHVPPTFGQGTKVEIERTVAAPSVFIFPPSDEQLKSGTASVVCLLNNFYPREAKVQWKVDNALQSGNSQESVTEQDSKDSTYSLSSTLTLSKADYEKHKVYACEVTHQGLSSPVTKSFNRGEC
notes: He Ab: alteration in the GpH7-B3 H chain only; also called He Ab
B4: GpH7-A5/GpH7-B3 variant S337_19Q/GpL16-k0 (antibody, human IgG1, kappa)
heavy 1: not shown
heavy 2: not shown
light: DIVMTQSPLSLPVTPGEPASISCQASESLVHSNRNTYLHWYLQKPGQSPQLLIYKVSNRFSGVPDRFSGSGSGTDFTLKISRVEAEDVGVYYCSQNTHVPPTFGQGTKVEIERTVAAPSVFIFPPSDEQLKSGTASVVCLLNNFYPREAKVQWKVDNALQSGNSQESVTEQDSKDSTYSLSSTLTLSKADYEKHKVYACEVTHQGLSSPVTKSFNRGEC
notes: as for B1
B5: GpH7-A5/GpH7-B3 variant S337_12R/GpL16-k0 (antibody, human IgG1, kappa)
heavy 1: not shown
heavy 2: not shown
light: DIVMTQSPLSLPVTPGEPASISCQASESLVHSNRNTYLHWYLQKPGQSPQLLIYKVSNRFSGVPDRFSGSGSGTDFTLKISRVEAEDVGVYYCSQNTHVPPTFGQGTKVEIERTVAAPSVFIFPPSDEQLKSGTASVVCLLNNFYPREAKVQWKVDNALQSGNSQESVTEQDSKDSTYSLSSTLTLSKADYEKHKVYACEVTHQGLSSPVTKSFNRGEC
notes: as for B1
B6: GpH7-A5/GpH7-B3 variant E333_05P/GpL16-k0 (antibody, human IgG1, kappa)
heavy 1: not shown
heavy 2: not shown
light: DIVMTQSPLSLPVTPGEPASISCQASESLVHSNRNTYLHWYLQKPGQSPQLLIYKVSNRFSGVPDRFSGSGSGTDFTLKISRVEAEDVGVYYCSQNTHVPPTFGQGTKVEIERTVAAPSVFIFPPSDEQLKSGTASVVCLLNNFYPREAKVQWKVDNALQSGNSQESVTEQDSKDSTYSLSSTLTLSKADYEKHKVYACEVTHQGLSSPVTKSFNRGEC
notes: as for B3
B7: GpH7-A5/GpH7-B3 variant S337_04F/GpL16-k0 (antibody, human IgG1, kappa)
heavy 1: not shown
heavy 2: not shown
light: DIVMTQSPLSLPVTPGEPASISCQASESLVHSNRNTYLHWYLQKPGQSPQLLIYKVSNRFSGVPDRFSGSGSGTDFTLKISRVEAEDVGVYYCSQNTHVPPTFGQGTKVEIERTVAAPSVFIFPPSDEQLKSGTASVVCLLNNFYPREAKVQWKVDNALQSGNSQESVTEQDSKDSTYSLSSTLTLSKADYEKHKVYACEVTHQGLSSPVTKSFNRGEC
notes: as for B1
B8: GpH7-A5/GpH7-B3 variant S337_06M/GpL16-k0 (antibody, human IgG1, kappa)
heavy 1: not shown
heavy 2: not shown
light: DIVMTQSPLSLPVTPGEPASISCQASESLVHSNRNTYLHWYLQKPGQSPQLLIYKVSNRFSGVPDRFSGSGSGTDFTLKISRVEAEDVGVYYCSQNTHVPPTFGQGTKVEIERTVAAPSVFIFPPSDEQLKSGTASVVCLLNNFYPREAKVQWKVDNALQSGNSQESVTEQDSKDSTYSLSSTLTLSKADYEKHKVYACEVTHQGLSSPVTKSFNRGEC
notes: as for B1
B9: GpH7-A5/GpH7-B3 variant A330_15Y/GpL16-k0 (antibody, human IgG1, kappa)
heavy 1: not shown
heavy 2: not shown
light: DIVMTQSPLSLPVTPGEPASISCQASESLVHSNRNTYLHWYLQKPGQSPQLLIYKVSNRFSGVPDRFSGSGSGTDFTLKISRVEAEDVGVYYCSQNTHVPPTFGQGTKVEIERTVAAPSVFIFPPSDEQLKSGTASVVCLLNNFYPREAKVQWKVDNALQSGNSQESVTEQDSKDSTYSLSSTLTLSKADYEKHKVYACEVTHQGLSSPVTKSFNRGEC
notes: as for B3
B10: GpH7-A5/GpH7-B3 variant H268_11K/GpL16-k0 (antibody, human IgG1, kappa)
heavy 1: not shown
heavy 2: not shown
light: DIVMTQSPLSLPVTPGEPASISCQASESLVHSNRNTYLHWYLQKPGQSPQLLIYKVSNRFSGVPDRFSGSGSGTDFTLKISRVEAEDVGVYYCSQNTHVPPTFGQGTKVEIERTVAAPSVFIFPPSDEQLKSGTASVVCLLNNFYPREAKVQWKVDNALQSGNSQESVTEQDSKDSTYSLSSTLTLSKADYEKHKVYACEVTHQGLSSPVTKSFNRGEC
notes: as for B3
B11: GpH7-A5/GpH7-B3 variant H268_12R/GpL16-k0 (antibody, human IgG1, kappa)
heavy 1: not shown
heavy 2: not shown
light: DIVMTQSPLSLPVTPGEPASISCQASESLVHSNRNTYLHWYLQKPGQSPQLLIYKVSNRFSGVPDRFSGSGSGTDFTLKISRVEAEDVGVYYCSQNTHVPPTFGQGTKVEIERTVAAPSVFIFPPSDEQLKSGTASVVCLLNNFYPREAKVQWKVDNALQSGNSQESVTEQDSKDSTYSLSSTLTLSKADYEKHKVYACEVTHQGLSSPVTKSFNRGEC
notes: as for B3
B12: GpH7-A5/GpH7-B3 variant E333_04F/GpL16-k0 (antibody, human IgG1, kappa)
heavy 1: not shown
heavy 2: not shown
light: DIVMTQSPLSLPVTPGEPASISCQASESLVHSNRNTYLHWYLQKPGQSPQLLIYKVSNRFSGVPDRFSGSGSGTDFTLKISRVEAEDVGVYYCSQNTHVPPTFGQGTKVEIERTVAAPSVFIFPPSDEQLKSGTASVVCLLNNFYPREAKVQWKVDNALQSGNSQESVTEQDSKDSTYSLSSTLTLSKADYEKHKVYACEVTHQGLSSPVTKSFNRGEC
notes: as for B3
B13: GpH7-A5/GpH7-B3 variant S337_11K/GpL16-k0 (antibody, human IgG1, kappa)
heavy 1: not shown
heavy 2: not shown
light: DIVMTQSPLSLPVTPGEPASISCQASESLVHSNRNTYLHWYLQKPGQSPQLLIYKVSNRFSGVPDRFSGSGSGTDFTLKISRVEAEDVGVYYCSQNTHVPPTFGQGTKVEIERTVAAPSVFIFPPSDEQLKSGTASVVCLLNNFYPREAKVQWKVDNALQSGNSQESVTEQDSKDSTYSLSSTLTLSKADYEKHKVYACEVTHQGLSSPVTKSFNRGEC
notes: as for B1
B14: GpH7-A5/GpH7-B3 variant A330_12R/GpL16-k0 (antibody, human IgG1, kappa)
heavy 1: not shown
heavy 2: not shown
light: DIVMTQSPLSLPVTPGEPASISCQASESLVHSNRNTYLHWYLQKPGQSPQLLIYKVSNRFSGVPDRFSGSGSGTDFTLKISRVEAEDVGVYYCSQNTHVPPTFGQGTKVEIERTVAAPSVFIFPPSDEQLKSGTASVVCLLNNFYPREAKVQWKVDNALQSGNSQESVTEQDSKDSTYSLSSTLTLSKADYEKHKVYACEVTHQGLSSPVTKSFNRGEC
notes: as for B3
B15: GpH7-A5/GpH7-B3 variant A330_11K/GpL16-k0 (antibody, human IgG1, kappa)
heavy 1: not shown
heavy 2: not shown
light: DIVMTQSPLSLPVTPGEPASISCQASESLVHSNRNTYLHWYLQKPGQSPQLLIYKVSNRFSGVPDRFSGSGSGTDFTLKISRVEAEDVGVYYCSQNTHVPPTFGQGTKVEIERTVAAPSVFIFPPSDEQLKSGTASVVCLLNNFYPREAKVQWKVDNALQSGNSQESVTEQDSKDSTYSLSSTLTLSKADYEKHKVYACEVTHQGLSSPVTKSFNRGEC
notes: as for B3
B16: GpH7-A5/GpH7-B3 variant S337_03V/GpL16-k0 (antibody, human IgG1, kappa)
heavy 1: not shown
heavy 2: not shown
light: DIVMTQSPLSLPVTPGEPASISCQASESLVHSNRNTYLHWYLQKPGQSPQLLIYKVSNRFSGVPDRFSGSGSGTDFTLKISRVEAEDVGVYYCSQNTHVPPTFGQGTKVEIERTVAAPSVFIFPPSDEQLKSGTASVVCLLNNFYPREAKVQWKVDNALQSGNSQESVTEQDSKDSTYSLSSTLTLSKADYEKHKVYACEVTHQGLSSPVTKSFNRGEC
notes: as for B1

Legend:
[1] = target: T4, FcγRIa (human, UniProt P12314 16-292); test: SPR (Biacore), relative to GpH7-A5/GpH7-B3/GpL16-k0 = 100
T4 construct: extracellular domain; also called FcgRI; FcgRIa
T4 sequence (P12314 16-292): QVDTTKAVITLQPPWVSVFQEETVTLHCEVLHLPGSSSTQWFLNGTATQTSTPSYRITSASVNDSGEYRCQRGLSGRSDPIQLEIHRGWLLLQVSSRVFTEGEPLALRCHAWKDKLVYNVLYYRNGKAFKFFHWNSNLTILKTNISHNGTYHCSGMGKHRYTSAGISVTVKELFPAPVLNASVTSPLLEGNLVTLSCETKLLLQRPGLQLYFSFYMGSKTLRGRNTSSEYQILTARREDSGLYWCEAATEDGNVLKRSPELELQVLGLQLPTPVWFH
Method: (§1) The heterodimerized antibodies He Abs in which one of the H chains was introduced with an alteration were assayed for their binding activities to each activating FcγR and inhibitory FcγR according to the method described in Example 4. […] The activating FcγRs in FIGS. 26, 27, 28, and 29 are FcγRIa, FcγRIIa (R), FcγRIIa (H), and FcγRIIIa, respectively.
(§2) Analysis of interaction between objective antibody and the FcγR was carried out using Biacore T100 (GE Healthcare). HBS-EP+ (GE Healthcare) was used as the running buffer, and the measurement temperature was set to 25° C. Chips produced by immobilizing the antigen peptide by the amine coupling method to a Series S Sencor Chip CM5 (GE Healthcare), or alternatively, chips produced by allowing preliminarily biotinylated antigen peptides to interact with and immobilize onto a Series S Sensor Chip SA (certified) (GE Healthcare) were used. Antibodies of interest were captured onto an antigen peptide-immobilized chip, and allowed to interact to each FcγR diluted with running buffer. To regenerate and repeatedly use the chip, the antibodies captured on the chip were washed off by reacting 10 mM glycine-HCl, pH 1.5.

[2] = target: T1, FcγRIIb; test: as above
Method: as §1, §2

[3] = target: T2, FcγRIIa R (FcγRIIa, allotype R: Arg at …); test: SPR Biacore, antibody captured, FcgR analyte; vs HeCon Ab GpH7-A5/GpH7-B3/GpL16-k0 = 100
Method: as §1, §2

[4] = target: T3, FcγRIIb extracellular domain with …; test: as above
Method: as §1, §2

Row | Binder | He/Con_1a (Ia binding) [1] | He/Con_2b (IIb binding) [2] | He/Con_2aR [3] | He/Con_2b [4]
1 | B1 | 107 relative (control = 100) | 92 relative (control = 100) |  | 
2 | B2 | 106 relative (control = 100) | 97.2 relative (control = 100) |  | 
3 | B3 |  |  | 104 control = 100 | 90.8 control = 100
4 | B4 | 105 relative (control = 100) | 99.7 relative (control = 100) |  | 
5 | B5 | 106 relative (control = 100) | 99.5 relative (control = 100) |  | 
6 | B6 |  |  | 105 control = 100 | 97.7 control = 100
7 | B7 | 106 relative (control = 100) | 97.8 relative (control = 100) |  | 
8 | B8 | 107 relative (control = 100) | 96.7 relative (control = 100) |  | 
9 | B9 |  |  | 102 control = 100 | 95 control = 100
10 | B10 |  |  | 100 control = 100 | 83 control = 100
11 | B11 |  |  | 105 control = 100 | 89.8 control = 100
12 | B12 |  |  | 102 control = 100 | 94.6 control = 100
13 | B13 | 104 relative (control = 100) | 94.3 relative (control = 100) |  | 
14 | B14 |  |  | 104 control = 100 | 84.8 control = 100
15 | B15 |  |  | 110 control = 100 | 95 control = 100
16 | B16 | 107 relative (control = 100) | 98.9 relative (control = 100) |  | 
